# B1: NOA3, anti-CD99 monoclonal antibody (IgG1) (antibody, V domains shown)
# VH: EVQLVQSGAEVKKPGESLKIACKGSGYSFSKYWIGWVRQMPGKGLEWMGIIYPGDSDTRYSPSFQGQVTISVDTSISTAYLQWSSLKASDTAIYYCARHLRNFGDAFDIWGQGTTVTVSS
# VL: SYELTQPPSVSVSPGQTARITCSGDALPKQYAYWYQQKPGQSPVLVIYQDSKRPSGIPERFSGSNSGNTATLTISGTQAMDEADYYCQAWDSSTAFGGGTKLTVL
# notes: constant region IgG1; IgG1; isolated by phage display
# B2: soluble human CD99 (coated on the ELISA plate) (natural protein, UniProt P14209 23-122, looked up)
# chain: DGGFDLSDALPDNENKKPTAIPKKPSAGDDFDLGDAVVDGENDDPRPPNPPKPMPNPNPNHPSSSGSFSDADLADGVSGGEGKGGSDGGGSHRKEGEEAD
# notes: human CD99, soluble; May be the same CD99-Fc (G&P Biosciences) as m6
# Key:
# [1] = molecular target: T1, CD99 (or MIC2), 32 kDa type I membrane glycoprotein, on cells (Homo sapiens, UniProt P14209); test: flow cytometry on cells; Ewing sarcoma cells incubated with anti-CD99 IgG1 (2 µg/mL; NOA1 10 µg/mL; NOA2 also titrated) for one hour at 4 °C, then FITC-conjugated mouse anti-human IgG; CD99-negative Kelly neuroblastoma cells as negative control; conditions: one partner purified
# T1 construct: CD99 (MIC2), human, endogenous on the cell surface; also called Ewing CD99; macrophage CD99; source: endogenous, on human Ewing sarcoma cell lines (A673, TC32, CADO-ES1, TC71, TTC466); endogenous, on monocytes derived from human PBMCs
# [2] = molecular target: T2, Human His-tagged PILRα, extracellular domain (human, UniProt Q9UKJ1 20-197); test: ELISA; plate coated with 2 µg/mL human CD99, PILRα at 0.25 to 5 µg/mL, detected with an anti-PILRα antibody and HRP-bound secondary; conditions: both partners purified
# T2 construct: PILRα, human, extracellular domain; Band at 55 kDa on SDS-PAGE; also called human PILRα; source: Expi293F, transfected (pcDNA3.4), purified from the supernatant (HisPur Ni-NTA column)
# T2 sequence (Q9UKJ1 20-197): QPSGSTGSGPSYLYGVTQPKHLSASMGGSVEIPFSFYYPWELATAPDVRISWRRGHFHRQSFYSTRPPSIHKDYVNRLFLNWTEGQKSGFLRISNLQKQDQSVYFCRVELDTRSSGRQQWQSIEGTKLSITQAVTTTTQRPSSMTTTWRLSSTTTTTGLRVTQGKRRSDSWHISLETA
Binder,binding result [1],binding result [2]
B1,binds,
B2,,binds
